Measured values as given in patent EP1680442B1 (Bioincept, LLC., dated 2011).
Ends that are not written are not given here.

Target: T1, AbPIF-1(15)
T1 construct: also called AbPIP-1(15); PIF-1 antibody
Assay: competition ELISA, pAb coated at 4.5 ug/ml, unlabelled against biotinylated peptide

B1: sPIF-1(15) (peptide)
peptide: MVRIKPGSANKPSDD
modifications: not fully specified; also: flow cytometry form: FITC on N-terminus via β-alanine spacer
notes: Synthetic 15-residue peptide; In flow cytometry it carried FITC on the N-terminus through a b-alanine spacer; also called synthetic PIF-1; FITC sPIF-1(15)
IC50: 0.5 to 0.7 nM
